Data set [1] has as its target T1, E. coli RNA polymerase β′ subunit (E. coli, UniProt P0A8T7 1-1407).
T1 construct: RNA polymerase β′ subunit, E. coli; Stood in the structures as a subunit of RNAP core; also called RNAP β′ subunit; source: E. coli BL21(DE3) with plasmid pIA900, purified as part of RNAP core enzyme
The data set can be described thus: cryo-EM structure; 0.8 uM E. coli RNAP incubated with 0.8 uM gp55, 0.8 uM gp33 and 0.8 uM gp45 homotrimer 10 min on ice, then with nucleic acid scaffold, gp44/gp62 complex, gp32 and dATP 20 min at 30 °C in transcription buffer; 3D classification gave RPo-gp55 (3.6 Å) and TAC-gp45 (4.5 Å); promoter DNA present. The settings on record: both partners purified.

The target in data set [2] is T2, E. coli RNA polymerase β subunit (E. coli, UniProt P0A8V2 1-1342).
T2 construct: RNA polymerase β subunit, E. coli; holds the β flap with the flap tip helix (FTH); Stood in the structures as a subunit of RNAP core; also called RNAP β subunit; source: E. coli BL21(DE3) with plasmid pIA900, purified as part of RNAP core enzyme
The data set is described as above. The note with it: both partners purified.

In data set [3] the target is E. coli RNA polymerase core;gp55 H154X (C-terminal region truncated) (Escherichia coli;bacteriophage T4, UniProt P0A7Z4;P0A8V2;P0A8T7;P0A800;P04524 1-329;1-1342;1-1407;1-91;1-153, |). Put plainly: EMSA; heparin 0.1 mg/ml challenge; forms RPo as effectively as full-length gp55; EMSA: 0.4 uM gp55, 0.2 uM RNAP, 0.2 uM DNA in 10 mM HEPES pH 7.5, 50 mM KCl, 5% glycerol, 0.1 mg/ml heparin; DNA 20 min at 37 C, heparin 1 min at 22 C; 5% PAGE. The settings on record: protein: recombinant;recombinant; tags: beta' C-terminal His tag (stated for pull-down);none stated; chain copies: 2;1;1;1;1; label: none (gel stained); blunt. (In general: In EMSA bound probe runs differently from free probe, usually more slowly.)

From paper PMC7892883, “Transcription activation by a sliding clamp” (Nature Communications, 2021) come the findings set out here.

B1: bacteriophage T4 gp55 (promoter specificity factor) (natural protein, UniProt P04524 1-185, looked up)
chain: MSETKPKYNYVNNKELLQAIIDWKTELANNKDPNKVVRQNDTIGLAIMLIAEGLSKRFNFSGYTQSWKQEMIADGIEASIKGLHNFDETKYKNPHAYITQACFNAFVQRIKKERKEVAKKYSYFVHNVYDSRDDDMVALVDETFIQDIYDKMTHYEESTYRTPGAEKKSVVDDSPSLDFLYEAND
notes: also called full-length gp55; wild-type protein
For B1, in data set [1], the binding result is recorded as “binds”.

B2: bacteriophage T4 gp33 (coactivator) (natural protein)
chain: MTQFSLNDIRPVDETGLSEKELSIKKEKDEIAKLLDRQENGFIIEKMVEEFGMSYLEATTAFLEENSIPETQFAKFIPSGIIEKIQSEAIDENLLRPSVVRCEKTNTLDFLL
notes: source: E. coli BL21(DE3), pET28a-NH-gp33, purified (Ni-NTA, Mono Q, Superdex 200)
Regarding B2, the binding result in data set [2] and in data set [1] was “binds” in each case.

B3: T4 late promoter EMSA scaffold (dsDNA)
DNA 1: CTAATAAAGAGCTCAGCACTATTACTGAGAGTATAAATACTCCTGATACTGAAGCAGCCGGACT
DNA 2: AGTCCGGCTGCTTCAGTATCAGGAGTATTTATACTCTCAGTAATAGTGCTGAGCTCTTTATTAG
In the case of B3, the binding result in data set [3] was “binds”.
